The subject of data set [1] is Sul12a (Sulfolobus acidocaldarius). Nature of the data set: EMSA. The note with it: KDapp, salmon sperm DNA 25 ug/mL, 20 mM Tris-HCl pH 8.0, 1 mM MgCl2, 0.1 mM DTT, 12.5% glycerol, 50 mM NaCl, 0.4 mM EDTA, 37 C 20 min, 0.1 nM 32P-DNA with 25 ug/mL salmon sperm DNA ….
Data set [2] concerns the molecule itself. Briefly: SDS-PAGE with western blot; 100 and 250 ug purified Sul12a separated by SDS-PAGE (4-12%), blotted on PVDF, probed with HRP-conjugated anti-polyHistidine antibodies. A general note: Immunoblotting shows a protein as a band on a membrane.

Consider three molecules from PMC9025068, “DNA-Binding Properties of a Novel Crenarchaeal Chromatin-Organizing Protein in Sulfolobus acidocaldarius” (Biomolecules, 2022).

The stoichiometry N is a count of units in the complex or per binding partner.

Take argO promoter region (F3): the Kd in data set [1] (F1 + F3 mixture) came out at 3700 nM.
Turning to carAB promoter region (F2), the Kd in data set [1] (F1 + F2 mixture) turned out to be 1200 nM.

B1: Sul12a (natural protein, Sulfolobus acidocaldarius, UniProt Q4JA12 1-107, looked up)
chain: MELTPRLQDIISILKEKGGSVNIRDLALQLKISPKTAKGYARELYRLGYIEMDENENMILKRENPENITDLKKTVETHTAEIEALKKEVEFLKEELSRFRGTKKVKV
notes: Sul12a of Sulfolobus acidocaldarius, encoded by the 324-bp gene Saci_1012; 107 amino acids, native MW 12.4 kDa (recombinant His-tagged monomer 14.3 kDa); the Saci_1012 coding region was amplified from genomic DNA and cloned in pET-45b(+); The preparation also held lower-MW species without tag (contaminants or degradation products); also called Saci_1012; not shown: His tag, N-terminal, kept
On to B1, for which the “stoichiometry N” value in data set [2] is 2.
